This is an account of results in PMC5805342.

The target of this test is Plasminogen (human).
As to Full-length muPA E73A (enzyme), the KM for plasminogen activation (indirect chromogenic assay with S-2251; plasminogen 24-0 μM, 1 nM muPA, 37°C) stood at 24.6 µM.
With Full-length muPA K72A (enzyme), the KM for plasminogen activation (indirect chromogenic assay with S-2251; plasminogen 24-0 μM, 1 nM muPA, 37°C) came to 3.1 µM.
Still for that read-out and setting: then Full-length muPA N77A (enzyme), with 5.1 µM.
Take Full-length muPA P78A (enzyme): the KM for plasminogen activation (indirect chromogenic assay with S-2251; plasminogen 24-0 μM, 1 nM muPA, 37°C) was 3.9 µM.
On the same count and under the same terms, the result for Full-length muPA S74A (enzyme) reads 22 µM; that for Full-length muPA Y76A (enzyme), 5 µM.
As for Full-length muPA Y149A (enzyme), the KM for plasminogen activation (indirect chromogenic assay with S-2251; plasminogen 24-0 μM, 1 nM muPA, 37°C) came to 12 µM and the kcat for plasminogen activation (indirect chromogenic assay with S-2251; plasminogen 24-0 μM, 1 nM muPA, 37°C) turned out to be 0.06 s⁻¹.
Turning to “Full-length murine urokinase-type plasminogen activator (muPA) (from UniProt P06869 21-433) (enzyme)”, the KM for plasminogen activation (indirect chromogenic assay with S-2251; plasminogen 24-0 μM, 1 nM muPA, 37°C) is 9.8 µM.
